tested on: Escherichia coli TOP10; assay: shrunken log2 fold change of peptide-encoding DNA abundance (4.5 h post-induction vs induction); higher = less antimicrobial activity (less host growth inhibition); conditions: time post-induction: 4.5 h; library: site-saturation at positions 5, 18, 19, 20
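Further: peptides expressed intracellularly from a pBAD plasmid library in pooled LB shake-flask culture, induced with 0.3% L-arabinose, DNA abundance read by NGS, three biological replicates, DESeq2 with apeglm shrinkage.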

| Sequence | shrunken log2 fold change |
| --- | --- |
| RRIRIRPPRLPRPRPRPLKTPRP | 0.0161 |
| RRIRSRPPRLPRPRPRPWDLPRP | 0.056 |
| RRIRGRPPRLPRPRPRPYWIPRP | -0.311 |
| RRIRVRPPRLPRPRPRPHKKPRP | -0.169 |
| RRIRNRPPRLPRPRPRPRDNPRP | 0.104 |
| RRIRNRPPRLPRPRPRPIYNPRP | -0.642 |
| RRIRPRPPRLPRPRPRPLDEPRP | 0.102 |
| RRIRDRPPRLPRPRPRPLIEPRP | 0.573 |
| RRIRTRPPRLPRPRPRPKLEPRP | -0.0598 |
| RRIRPRPPRLPRPRPRPYVYPRP | -0.636 |
| RRIRPRPPRLPRPRPRPVPGPRP | 0.202 |
| RRIRSRPPRLPRPRPRPEATPRP | 0.72 |
| RRIRERPPRLPRPRPRPDNNPRP | -0.237 |
| RRIRYRPPRLPRPRPRPISFPRP | -0.00256 |
| RRIRHRPPRLPRPRPRPPGSPRP | 0.0725 |
| RRIRTRPPRLPRPRPRPELTPRP | 0.0104 |
| RRIRLRPPRLPRPRPRPQMDPRP | -0.16 |
| RRIRTRPPRLPRPRPRPNWPPRP | -0.0423 |
| RRIRGRPPRLPRPRPRPWTNPRP | 0.0419 |
| RRIRTRPPRLPRPRPRPDTAPRP | 0.0677 |
| RRIRARPPRLPRPRPRPYIMPRP | -0.675 |
| RRIRERPPRLPRPRPRPQPWPRP | -0.0127 |
| RRIRLRPPRLPRPRPRPNQDPRP | -0.0883 |
| RRIRSRPPRLPRPRPRPWHHPRP | -0.0809 |
| RRIRFRPPRLPRPRPRPPFSPRP | -0.0847 |

| Sequence | shrunken log2 fold change |
| --- | --- |
| RRIRIRPPRLPRPRPRPNWQPRP | -0.0358 |
| RRIRKRPPRLPRPRPRPGAEPRP | 1.26 |
| RRIRYRPPRLPRPRPRPAHLPRP | -0.0584 |
| RRIRMRPPRLPRPRPRPHKEPRP | 0.0586 |
| RRIRKRPPRLPRPRPRPWQFPRP | 0.157 |
| RRIRERPPRLPRPRPRPYGPPRP | -1.02 |
| RRIRSRPPRLPRPRPRPWWNPRP | -0.0574 |
| RRIRARPPRLPRPRPRPDKIPRP | 0.299 |
| RRIRGRPPRLPRPRPRPLVAPRP | 1.16 |
| RRIRIRPPRLPRPRPRPDDYPRP | 0.07 |
| RRIRMRPPRLPRPRPRPNWPPRP | 0.096 |
| RRIRCRPPRLPRPRPRPFSNPRP | -0.117 |
| RRIRCRPPRLPRPRPRPWTEPRP | -0.755 |
| RRIRDRPPRLPRPRPRPHWYPRP | -0.212 |
| RRIRTRPPRLPRPRPRPFYGPRP | -0.473 |
| RRIRDRPPRLPRPRPRPYMYPRP | -0.194 |
| RRIRPRPPRLPRPRPRPEEGPRP | -0.0155 |
| RRIRGRPPRLPRPRPRPCIPPRP | -0.165 |
| RRIRWRPPRLPRPRPRPHEFPRP | -0.0844 |
| RRIRVRPPRLPRPRPRPTIFPRP | -0.469 |
| RRIRYRPPRLPRPRPRPDKVPRP | -0.102 |
| RRIRARPPRLPRPRPRPQLQPRP | 0.426 |
| RRIRYRPPRLPRPRPRPEQFPRP | -0.14 |
| RRIRQRPPRLPRPRPRPRTAPRP | 0.0467 |
| RRIRNRPPRLPRPRPRPVNQPRP | 0.214 |

| Sequence | shrunken log2 fold change |
| --- | --- |
| RRIRCRPPRLPRPRPRPSNTPRP | -0.417 |
| RRIRFRPPRLPRPRPRPVYAPRP | -0.444 |
| RRIRMRPPRLPRPRPRPTHTPRP | 1.03 |
| RRIRERPPRLPRPRPRPDVYPRP | -0.301 |
| RRIRGRPPRLPRPRPRPTYMPRP | 0.0228 |
| RRIRNRPPRLPRPRPRPRTSPRP | -0.0838 |
| RRIRVRPPRLPRPRPRPAGDPRP | 0.778 |
| RRIRCRPPRLPRPRPRPLNEPRP | -0.0566 |
| RRIRNRPPRLPRPRPRPGCMPRP | 0.0522 |
| RRIRNRPPRLPRPRPRPKPRPRP | 0.83 |
| RRIRDRPPRLPRPRPRPCDKPRP | -0.206 |
| RRIRWRPPRLPRPRPRPVETPRP | -0.0256 |
| RRIRFRPPRLPRPRPRPGNRPRP | 1.63 |
| RRIRPRPPRLPRPRPRPAHLPRP | 0.317 |
| RRIRNRPPRLPRPRPRPHAFPRP | -0.0636 |
| RRIRARPPRLPRPRPRPCDYPRP | -0.295 |
| RRIRKRPPRLPRPRPRPGDEPRP | 0.128 |
| RRIRKRPPRLPRPRPRPHPGPRP | 0.293 |
| RRIRFRPPRLPRPRPRPTPQPRP | 0.366 |
| RRIRWRPPRLPRPRPRPFDCPRP | -0.0389 |
| RRIRNRPPRLPRPRPRPNIGPRP | -0.00968 |
| RRIRLRPPRLPRPRPRPHPQPRP | 0.0301 |
| RRIRDRPPRLPRPRPRPMMHPRP | 0.937 |
| RRIRSRPPRLPRPRPRPQIPPRP | -0.538 |
| RRIRHRPPRLPRPRPRPRTDPRP | 0.0682 |
